This is an account of results in PMC5340530, “YOD1/TRAF6 association balances p62-dependent IL-1 signaling to NF-κB” (eLife, 2017).

This assay concerns the target T1, recombinant GST-YOD1 (UniProt Q5VVQ6 1-348).
T1 construct: YOD1 (OTUD2, DUBA8); A GST-YOD1 truncation product is seen in the blots (asterisk)
The assay can be described thus: pull-down; GST-YOD1 (or GST) on Glutathione Sepharose 4B; candidate protein incubated 2 hr at 4°C in assay buffer with 0,5% Triton X100; Western blot or Coomassie. The settings on record: both partners purified. A general note: Immunoblotting shows a protein as a band on a membrane.

B1: HIS-TRAF6 MATH (346-504) (domain or fragment, UniProt Q9Y4K3 346-504, looked up)
chain: AQQCNGIYIWKIGNFGMHLKCQEEEKPVVIHSPGFYTGKPGYKLCMRLHLQLPTAQRCANYISLFVHTMQGEYDSHLPWPFQGTIRLTILDQSEAPVRQNHEEIMDAKPELLAFQRPTIPRNPKGFGYVTFMHLEALRQRTFIKDDTLLVRCEVSTRFD
notes: also called C-terminal HIS-TRAF6 MATH; TRAF6 MATH domain
With B1, the binding result is “binds”.

B2: HIS-TRAF6 CC-MATH (310-522) (domain or fragment, UniProt Q9Y4K3 310-522, looked up)
chain: DHQIRELTAKMETQSMYVSELKRTIRTLEDKVAEIEAQQCNGIYIWKIGNFGMHLKCQEEEKPVVIHSPGFYTGKPGYKLCMRLHLQLPTAQRCANYISLFVHTMQGEYDSHLPWPFQGTIRLTILDQSEAPVRQNHEEIMDAKPELLAFQRPTIPRNPKGFGYVTFMHLEALRQRTFIKDDTLLVRCEVSTRFDMGSLRREGFQPRSTDAGV
notes: TRAF6, coiled-coil and MATH domains, residues 310-522; also called HIS-TRAF6 310–522; TRAF6 C-terminus
For the molecule B2, the binding result is on record as “binds”.
